Legend:
[1] = biological target: T1, ACLY peptide, 3-pHis form; experiment: BLI; biotinylated pHis peptides (20 nM) on streptavidin biosensors, Fab in solution at varying concentrations; 50 mM Hepes pH 8.0, 150 mM NaCl, 0.05% Tween-20, 0.2% BSA; Octet RED96e; global fit to a 1:1 Langmuir model
T1 sequence (peptide, biotin on the N-terminus; C-terminal amide; 3-phosphohistidine at position 5): VQFGHAGAC

[2] = biological target: T2, Common-His peptide, 3-pHis form; experiment: as above
T2 sequence (peptide, biotin on the N-terminus; C-terminal amide; 3-phosphohistidine at position 5): GEQLHDLNA

[3] = biological target: T3, NM23 peptide, 3-pHis form; experiment: as above
T3 sequence (peptide, biotin on the N-terminus; C-terminal amide; 3-phosphohistidine at position 5): RNIIHGSDS

[4] = substrate: SCS peptide, 3-pHis form; experiment: as above
[5] = biological target: T4, ACLYana-3-pHis peptide (AGAG-3-pHis-AGAG); experiment: BLI; N-terminally biotinylated peptides (20 nM) on streptavidin biosensors, varying concentrations of Fab in solution; 50 mM Hepes pH 8.0, 150 mM NaCl, 0.05% Tween-20, 0.2% BSA; association 120 s, dissociation 200 s; global fit to a 1:1 Langmuir model; Octet RED96e; in triplicate
T4 sequence (peptide, 3-phosphohistidine at position 5; biotin on the N-terminus): AGAGHAGAG

[6] = biological target: ACLYana-3-pTza peptide (AGAG-3-pTza-AGAG); experiment: as above
[7] = biological target: ACLYana-3-pTza peptide (AGAG-3-pTza-AGAG); experiment: BLI binding kinetics of 3-pHis Fabs with cognate pTza peptide; conditions: triplicate; for Kd: BLI Octet RED96e, N-terminally biotinylated peptide (20 nM) on streptavidin biosensors, varying Fab concentration, 50 mM Hepes pH 8.0, 150 mM NaCl, 0.05% Tween-20, 0.2% BSA, association 120 s, dissociation 200 s, global fit 1:1 Langmuir; for ka / kd: BLI, immobilized biotinylated ACLYana-3-pTza, 1:1 Langmuir global fit
Experimental: (§1) Biolayer interferometry (BLI) studies were performed to determine the relative affinity of pHis Fabs to in situ phosphorylated His peptides versus the phosphomimetic substrates. The N-terminally biotinylated peptides were immobilized on streptavidin biosensors and the rate of association (ka) and dissociation (kd) were determined by varying the pHis Fab concentration. Equilibrium dissociation constants (KD) were determined by fitting the experimental data to a 1:1 Langmuir binding model. ACLYana-1-pTza and ACLYana-3-pTza peptides were used to determine affinity to 1-pHis and 3-pHis Fabs, respectively (Fig. 3 A–E and Table 1). […] The two isomers were separated from each other by passing the reaction through affinity columns containing 1-pHis mAbs using SC1-1 or SC50-3 IgGs or 3-pHis mAbs using SC39-4, SC44-8, and SC56-2 IgGs. The eluates thus contained either predominantly 1-pHis or 3-pHis peptides. These peptides were used to determine the affinity to their respective isomer class of pHis Fabs (Fig. 3 F–J, Table 1, and SI Appendix, Fig. S5). […] This experimental observation is well supported by the higher number of hydrogen bonds that support the SC44-8:3-pTza interaction compared to other pHis Fabs (SI Appendix, Table S5). […] There are at least three reasons for the lower affinity of the mAbs for pHis peptides compared to pTza peptides: The continuous hydrolysis of phosphate from the pHis peptides during the course of the experiment (SI Appendix, Fig. S6), a reduction in the number of hydrogen bond interactions due to one less nitrogen in the imidazole ring compared to triazolyl ring (Fig. 4 and SI Appendix, Fig. S8), and inherently different electronic properties of the imidazole and triazolyl rings in His and Tza, respectively ([20]).
(§2) Fig. 3. Binding kinetics of pHis Fabs with cognate pTza and pHis peptides. BLI studies of immobilized peptides (ACLYana-1/3-pTza and phosphorylated ACLYana) with varying concentrations of the pHis Fabs were carried out in triplicate on an Octet Red96e instrument (FortéBio). SC1-1 (A) and SC50-3 (B) pHis Fab interaction with their ACLYana-1-pTza peptides. SC39-4 (C), SC44-8 (D), and SC56-2 (E) pHis Fabs interactions with ACLYana-3-pTza peptides. SC1-1 (F), SC50-3 (G), SC39-4 (H), SC44-8 (I), and SC56-2 (J) pHis Fabs interactions with their affinity-purified ACLYana-pHis peptides are represented, Right. The experimental data are represented in the black dashed lines and the nonlinear least-squares fitting was represented in the red continuous lines. The χ^2 for the goodness of fit is under 1.0 for the all the plots.
(§3) The binding kinetics of pHis Fabs with the peptides (pTza and pHis) were evaluated with an Octet RED96e (FortéBio). Streptavidin-coated biosensors (FortéBio) were presoaked in buffer containing 50 mM Hepes pH 8.0, 150 mM NaCl, 0.05% Tween-20, and 0.2% BSA for 15 min. The biotinylated pTza peptides or pHis peptides (20 nM) with and without phosphoramidate treatment were coated onto these streptavidin biosensors and analyzed for their binding to varying concentrations of the pHis Fabs with an association time of 120 s and dissociation time of 200 s. The entire set of experiments was repeated three times. The data were analyzed using the Octet software (FortéBio) and the rates of association and dissociation were obtained by global fitting data to the 1:1 Langmuir interaction model.

[8] = system: ACLYana-3-pHis peptide (AGAG-3-pHis-AGAG); experiment: BLI binding kinetics of 3-pHis Fabs with affinity-purified pHis peptide; conditions: for ka / kd / Kd: BLI, 1:1 Langmuir global fit, triplicate; for ka / kd: affinity-purified ACLYana-3-pHis peptide; for Kd: ACLYana phosphorylated with phosphoramidate (8 h, 23 °C), 3-pHis isomer affinity-purified on 3-pHis IgG column, immobilized on streptavidin biosensors, Hepes pH 8.0; for affinity for 3-pHis peptides, times (fold) weaker than for the 3-pTza peptide: ratio of BLI KD, 3-pHis versus 3-pTza peptide
Experimental: as §1, §2
as §3, with “model. […]” for “model.”
Peptides used in the DSF and BLI experiments were synthesized by the Salk Peptide Synthesis Core. These peptides were N-terminally biotinylated and C-terminally amidated. They were synthesized using standard Fmoc chemistry on a Gyros Protein Technologies Tribute peptide synthesizer with UV monitoring. Following the deprotection, peptides were analyzed by mass spectrometry and analytical HPLC by the Proteomics Core at Salk. The peptides were HPLC purified to 99% purity by 21st Century Biochemicals, Inc. The Fmoc-pTza’s were synthesized at 10 g scale for incorporation into the peptides. […]

[9] = biological target: T5, ACLYana-1-pHis peptide (AGAG-1-pHis-AGAG); experiment: BLI; N-terminally biotinylated peptides (20 nM) on streptavidin biosensors, varying concentrations of Fab in solution; 50 mM Hepes pH 8.0, 150 mM NaCl, 0.05% Tween-20, 0.2% BSA; association 120 s, dissociation 200 s; global fit to a 1:1 Langmuir model; Octet RED96e; in triplicate
T5 sequence (peptide, 1-phosphohistidine at position 5; biotin on the N-terminus): AGAGHAGAG

[10] = biological target: ACLYana-1-pTza peptide (AGAG-1-pTza-AGAG); experiment: as above

B1: SC39-4 Fab (Fab, V domains shown)
VH: QSVEESGGRLVTPGGSLTLTCTVSGFSLSRYNMGWVRQAPGKGLEWIGWIPFRGSLKYATWATGRFTISRTSTTVDLRMTGLTAADTATYFCVRSSDGFDLWGPGTLVTISS
VL: DMTQTPASVEAVVGGTVTIKCQASRDTGDGLIWYQQKPGQPPKRLIYKASTVASGVPSRFKGRGSGTDFTLTISDLECADAATYYCHSNFYNRWTYGNAFGGGTEVVVK
- Kd [1]: 1420 nM
- koff [1]: 0.0243 s⁻¹
- kon [1]: 72200 M⁻¹ s⁻¹
- Kd [2]: 3290 nM
- koff [2]: 0.0454 s⁻¹
- kon [2]: 13800 M⁻¹ s⁻¹
- Kd [3]: 2350 nM
- koff [3]: 0.073 s⁻¹
- kon [3]: 51400 M⁻¹ s⁻¹
- Kd [4]: 2320 nM
- koff [4]: 0.0521 s⁻¹
- kon [4]: 22400 M⁻¹ s⁻¹
- Kd [5]: 799 nM
- koff [5]: 0.117 s⁻¹
- kon [5]: 147000 M⁻¹ s⁻¹
- Kd [6]: 67 nM
- koff [6]: 0.011 s⁻¹
- kon [6]: 164000 M⁻¹ s⁻¹

B2: SC39-4: Fab of rabbit 3-pHis-specific monoclonal antibody (antibody, V domains shown)
VH: B1 VH
VL: B1 VL
- Kd [7]: 67 nM
- ka [7]: 164000 ± 1060 M⁻¹ s⁻¹
- kd [7]: 0.011 ± 1.6e-05 s⁻¹
- ka [8]: 147000 ± 5780 M⁻¹ s⁻¹
- kd [8]: 0.117 ± 0.0016 s⁻¹
- Kd [8]: 799 nM
- affinity for 3-pHis peptides, times (fold) weaker than for the 3-pTza peptide [8]: 10 to 25 times

B3: SC1-1 Fab (Fab, V domains shown)
VH: QSVEESEGGLFKPTDTLTLTCTASGFSLSGHGVIWVRQAPGKGLEWIGSAGAYGRIYYASWAKSRSTITRNTNLNTVTLKMTSLTAADTATYFCARRSDVGTSVGFDSWGPGTLVTISS
VL: DMTQTPSSKSVPVGDTVTINCQASESVYSNNRLSWFQQKPGQPPKLLIYLVSTLASGVPSRFKGSGSGTQFTLTISDVVCDDAATYYCVGYKSSTTDGLAFGGGTEVVVK
- Kd [9]: 95.1 nM
- koff [9]: 0.00925 s⁻¹
- kon [9]: 97300 M⁻¹ s⁻¹
- Kd [10]: 24.8 nM
- koff [10]: 0.00199 s⁻¹
- kon [10]: 81300 M⁻¹ s⁻¹

B4: SC56-2 Fab (Fab, V domains shown)
VH: QSVEESEGGLIKPGGILTLTCTASGFSLSSYGFSWVRQAPGKGLEHIGYLHANGRAYYATWAKSRSTITRNTNLNTVTLQLTSLTAADTATYFCAKIGSVSDVAIWGPGTLVTISS
VL: DMTQTPSSTSAAVGGTVTINCQSSESIYNNKNLAWYQQKPGQSPRRLIYSISTLASGVSSRFKGSGSGTQFTLTISDVQCDDAATYYCVGYYYSGGYYYSGSAAYYAFGGGTEVVVK
- Kd [1]: 3010 nM
- koff [1]: 0.15 s⁻¹
- kon [1]: 50100 M⁻¹ s⁻¹
- Kd [2]: 3600 nM
- koff [2]: 0.127 s⁻¹
- kon [2]: 35600 M⁻¹ s⁻¹
- Kd [3]: 5700 nM
- koff [3]: 0.126 s⁻¹
- kon [3]: 22200 M⁻¹ s⁻¹
- Kd [4]: 6200 nM
- koff [4]: 0.136 s⁻¹
- kon [4]: 22000 M⁻¹ s⁻¹
- Kd [5]: 2420 nM
- koff [5]: 0.183 s⁻¹
- kon [5]: 75600 M⁻¹ s⁻¹
- Kd [6]: 96.6 nM
- koff [6]: 0.00939 s⁻¹
- kon [6]: 97300 M⁻¹ s⁻¹

B5: SC56-2: Fab of rabbit 3-pHis-specific monoclonal antibody (antibody, V domains shown)
VH: B4 VH
VL: B4 VL
- Kd [7]: 96.6 nM
- ka [7]: 97300 ± 1110 M⁻¹ s⁻¹
- kd [7]: 0.00939 ± 1.78e-05 s⁻¹
- ka [8]: 75600 ± 2170 M⁻¹ s⁻¹
- kd [8]: 0.183 ± 0.00181 s⁻¹
- Kd [8]: 2420 nM
- affinity for 3-pHis peptides, times (fold) weaker than for the 3-pTza peptide [8]: 10 to 25 times

Source: PMC8017925, “Structural basis for differential recognition of phosphohistidine-containing peptides by 1-pHis and 3-pHis monoclonal antibodies” (Proceedings of the National Academy of Sciences of the …, 2021)
